This experiment addresses T1, protein A (UniProt P38507 37-477).
T1 construct: also called Protein A superantigen
Briefly: phage ELISA on coated protein A; signal after 80 C 10 min then 4 C 10 min as % of the untreated sample (heat/cool assay). In general terms: In an ELISA, binding on a coated surface is turned into a signal by an enzyme label.

B1: HEL4 VH (other)
VH: QVQLLESGGGLVQPGGSLRLSCAASGFRISDEDMGWVRQAPGKGLEWVSSIYGPSGSTYYADSVKGRFTISRDNSKNTLYLQMNSLRAEDTAVYYCASALEPLSEPLGFWGQGTLVTVSS
With B1, the “Retained binding to protein A” value came out at 88%.

For the origin of these results see patent US20120207673A1 (GARVAN INSTITUTE OF MEDICAL RESEARCH, published 2012).
